Assay results taken from patent publication US20250043302A1, “MUTATED HYDROXYPHENYLPYRUVATE DIOXYGENASE POLYPEPTIDE, AND CODING GENE AND USE THEREOF” (BEIJING DABEINONG BIOTECHNOLOGY CO., LTD., priority 2021, published 2025).

How the values were obtained:
[1] = system: Arabidopsis thaliana T1 plants; assay: Isoxaflutole tolerance of transgenic Arabidopsis thaliana T1 plants (spray, bleached leaf area grade, damage score); format: in vivo; conditions: 7 DAT, Table 2; for Scores: pesticide damage score 0-100;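 on Scores: Weighted damage index from 0 to 100 where higher means more damage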
Outline: (§1)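 Read-out: per-plant damage grade 0–3 from proportion of bleached leaf area at 7 DAT (1 <50%, 2 >50%, 3 100%). Plants were T1 transformants, glufosinate-selected, plus wild-type CK, sprayed 18 days post-sowing. Rates: topramezone 25–200, isoxaflutole 35–280, mesotrione 52.5–420 g ai/ha.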

[2] = system: Arabidopsis thaliana T1 plants; assay: Mesotrione tolerance of transgenic Arabidopsis thaliana T1 plants (spray, bleached leaf area grade, damage score); format: in vivo; parameters: Scores: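 damage score 0-100 computed as Σ(N×S)/(T×M)×100 over grades 0-3 with higher meaning more damage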; conditions: for Classification and statistics of the grade of pesticide damage Grade 0 / Classification and statistics of the grade of pesticide damage Grade 1 / Classification and statistics of the grade of pesticide damage Grade 2 / Classification and statistics of the grade of pesticide damage Grade 3: number of plants in grade; for Classification and statistics of the grade of pesticide damage: Grade 0 / Classification and statistics of the grade of pesticide damage: Grade 1 / Classification and statistics of the grade of pesticide damage: Grade 2 / Classification and statistics of the grade of pesticide damage: Grade 3: number of plants
Outline: as §1

[3] = number of plants, isoxaflutole 280 g ai/ha (4×)
[4] = mesotrione 210 g ai/ha (two-fold field concentration), 7 DAT, Table 3
[5] = mesotrione 420 g ai/ha (4×), 7 DAT, Table 3

B1: AsHPPDm-F372A-02: nucleotide sequence encoding Avena sativa HPPD with F372A; vector DBN11728 (nucleic acid)
DNA: ATGCCACCTACTCCAGCTACAGCTACTGGTGCTGCTGCTGCTGCCGTTACTCCTGAGCACGCTGCCAGGTCATTCCCCAGGGTGGTTCGCGTGAACCCCAGATCTGATAGGTTCCCAGTTCTGAGCTTCCACCATGTTGAGCTGTGGTGCGCTGATGCTGCTTCTGCTGCTGGCAGGTTCTCTTTCGCTCTTGGTGCTCCACTCGCTGCTAGATCTGATCTGTCTACAGGAAATAGCGCTCATGCCTCACTCCTGCTTCGCTCAGGTGCTTTGGCCTTCCTCTTCACCGCTCCATATGCTCCCCCACCTCAGGAGGCTGCTACTGCTGCTGCTACAGCCTCCATTCCAAGCTTCTCAGCTGATGCCGCTAGAACCTTCGCTGCTGCTCATGGACTTGCCGTGAGGTCTGTTGGTGTTCGCGTGGCTGATGCTGCTGAGGCTTTCAGAGTTTCCGTTGCCGGCGGAGCTAGGCCAGCTTTCGCTCCTGCTGATTTGGGACATGGTTTCGGCCTGGCTGAGGTTGAGCTTTACGGTGACGTGGTTCTCCGCTTCGTGTCTTACCCAGATGAGACTGACCTGCCTTTCCTTCCCGGCTTCGAGAGAGTTTCCTCTCCTGGTGCCGTGGATTACGGCCTGACAAGGTTCGACCACGTGGTTGGAAACGTTCCCGAGATGGCTCCAGTGATCGATTACATGAAGGGCTTCCTTGGATTCCATGAGTTCGCCGAGTTCACTGCTGAGGACGTGGGAACCACTGAGTCCGGTTTGAACTCTGTGGTTCTCGCCAACAATTCTGAGGCTGTTTTGCTCCCTCTGAATGAGCCTGTGCATGGAACCAAGAGGAGAAGCCAGATTCAAACTTACCTGGAGTACCACGGTGGCCCTGGAGTTCAGCATATCGCCCTTGCTTCTAATGATGTGTTGCGCACACTCAGAGAGATGCGCGCCAGAACCCCCATGGGAGGTTTCGAGTTCATGGCCCCACCACAGGCTAAGTACTACGAGGGCGTTAGAAGGATTGCTGGAGACGTGTTGAGCGAGGAGCAGATCAAGGAGTGCCAAGAGCTGGGTGTTCTTGTGGATAGGGATGACCAGGGCGTTCTGCTTCAAATTGCCACTAAGCCAGTGGGCGACCGCCCTACATTCTTCCTTGAGATGATTCAAAGAATCGGCTGCATGGAGAAGGATGAGGTTGGACAGGAGTACCAAAAGGGCGGATGCGGTGGCTTCGGAAAGGGTAACTTCAGCGAGTTGTTCAAGTCAATCGAGGACTACGAGAAGAGCCTCGAGGTGAAGCAGTCAGTGGTTGCCCAAAAGTCCTGA
modifications: AsHPPDm-F372A-02 Nucleotide Sequence
notes: vector DBN11728
Classification and statistics of the grade of pesticide damage: Grade 3 ([1]; number of plants, isoxaflutole 140 g ai/ha (2×)): 0
Classification and statistics of the grade of pesticide damage: Grade 0 [1, 3]: 0
Classification and statistics of the grade of pesticide damage: Grade 1 [1, 3]: 0
Classification and statistics of the grade of pesticide damage: Grade 2 [1, 3]: 16
Classification and statistics of the grade of pesticide damage: Grade 3 [1, 3]: 0
Scores ([1]; isoxaflutole 140 g ai/ha (2×)): 33
Scores ([1]; isoxaflutole 280 g ai/ha (4×)): 67
tolerance to mesotrione (in words) ([2]; in vivo): different degrees of tolerance
Resistance evaluation ([2]; mesotrione 210 g ai/ha): Moderately
Scores ([2]; mesotrione 210 g ai/ha): 31
Resistance evaluation [2, 4]: moderately
Classification and statistics of the grade of pesticide damage Grade 0 ([2]; mesotrione 210 g ai/ha): 5
Classification and statistics of the grade of pesticide damage Grade 1 ([2]; mesotrione 210 g ai/ha): 7
Classification and statistics of the grade of pesticide damage Grade 2 ([2]; mesotrione 210 g ai/ha): 4
Classification and statistics of the grade of pesticide damage Grade 3 ([2]; mesotrione 210 g ai/ha): 0
Resistance evaluation ([2]; mesotrione 420 g ai/ha): Poorly resistant
Scores ([2]; mesotrione 420 g ai/ha): 50
Resistance evaluation [2, 5]: poorly resistant (poorly resistant plants (scores 34-67))
Classification and statistics of the grade of pesticide damage Grade 0 ([2]; mesotrione 420 g ai/ha): 0
Classification and statistics of the grade of pesticide damage Grade 1 ([2]; mesotrione 420 g ai/ha): 8
Classification and statistics of the grade of pesticide damage Grade 2 ([2]; mesotrione 420 g ai/ha): 8
Classification and statistics of the grade of pesticide damage Grade 3 ([2]; mesotrione 420 g ai/ha): 0
tolerance to mesotrione (resistance class) ([2]; mesotrione at four-fold field concentration): poorly-resistant
tolerance to mesotrione (resistance class) ([2]; mesotrione at two-fold field concentration): moderately-resistant
Classification and statistics of the grade of pesticide damage: Grade 0 [2, 4]: 5
Classification and statistics of the grade of pesticide damage: Grade 1 [2, 4]: 7
Classification and statistics of the grade of pesticide damage: Grade 2 [2, 4]: 4
Classification and statistics of the grade of pesticide damage: Grade 3 [2, 4]: 0
Classification and statistics of the grade of pesticide damage: Grade 0 [2, 5]: 0
Classification and statistics of the grade of pesticide damage: Grade 1 [2, 5]: 8
Classification and statistics of the grade of pesticide damage: Grade 2 [2, 5]: 8
Classification and statistics of the grade of pesticide damage: Grade 3 [2, 5]: 0
Scores ([2]; pesticide damage score 0-100, mesotrione 210 g ai/ha (two-fold field concentration), 7 DAT, Table 3): 31
Scores ([2]; pesticide damage score 0-100, mesotrione 420 g ai/ha (4×), 7 DAT, Table 3): 50
